Reference: a protein production outcome set (Wang et al. 2014)

Test: label from the status in PepcDB records

Sequence | protein production
MSLRDYTRKRRFDQTPEPAEDAAATAHRQPIFVVQLHHASSRHYDFRLEADGVLKSWAVPKGPSLRAGEKRLAVQVEDHPLAYAGFEGDIPQGQYGAGHVQVFDHGTWHCDGDALAALDAGKLDFDLQGDKLRGGFALVRTRLRGRQPQWLLIKRDDAHAADLDADALVADSDATAQAIETPSAAAAPARRAKASRRRRTPAEALVTEKSASASRPRASAATQAHWRTRALALPGARDAACPTGLRAQLTLLRAEAPDGAQWPHEIKWDGYRLLTDLVDGRAQLRSRNDQAWTDSFPEVATAVQALPVRDARLDGELVVLDAQGRSDFSALQRAIDGTARQPLRYLVFDLLGVAGVDLRATPLLERKQLLRALLGETPGTLAYSAHVIGRGPEVFAASADKGWEGIVSKRADAPYRGGRSADWVKTKHEDSDEFVVVGYTDPKGARSGFGALLLAQLDGTQLRYVGRVGTGFDSALLGEITAQLQALHSPQPTLELPAHIPSRPRDVHWVRPVLIAEVAFRGWAKQGLLRQAAFKRLREDKPMSDLGGDRATPGKSRGARTRTAAAAAGKASRAAATRTAAVSAGGSAAKPGKAGKSSTAADVSTPSRVAKQRVTPAASSAAKPGKPGKSSAAATGTASPRAAKRGAVSTASASSTPKSGKRSVSSGSAASGKPAAPSKAASSKTARTPATSSARKTSTATAASSIRKARASASNAPDGVAITHPERVVFPAAGISKGDVAAYYRAVAPLVLPEIARRPLSLLRCPDGAAGACFFQKHEGRHLGAHIKAIPLKQKSGTEDYLYIEDVAGLLELVQMNTLELHPWGARVDDPEHPDRLVFDLDPGEGVAWTQVVAAAREIRSKLRAAGLESAVRLSGGKGLHVVVPIVPQASWDQARDFCEAFAQALATQAPERYVATMSKAKRHGVIFVDWLRNGRGNTSVCSWSLRAREHATVAVPLRWEELGKLSGPDAFPLDKAVQRAKRQRNDPWADVLALKQVLPG | failed
MSLRIGVIGLGRIGTIHAENLKMIDDAILYAISDVREDRLREMKEKLGVEKAYKDPHELIEDPNVDAVLVCSSTNTHSELVIACAKAKKHVFCEKPLSLNLADVDRMIEETKKADVILFTGFNRRFDRNFKKLKEAVENGTIGKPHVLRITSRDPAPPPLDYIRVSGGIFLDMTIHDFDMARYIMGEEVEEVFADGSVLVDEEIGKAGDVDTAVVVLRFKSGALGVIDNSRRAVYGYDQRIEVFGSKGRIFADNVRETTVVLTDEQGDRGSRYLYFFLERYRDSYLEELKTFIKNVKSGEPPAVSGEDGKMALLLGYAAKKSLEEKRSVKLEEVIGEGHHHHHH | not failed
MSLRIRVPATTANLGPGFDSCGLALTLYLTLDIGAEADSWYIEHNIGGGIPHDETNVIIETALNLAPNLTPHHLVMTCDIPPARGLGSSSAAVVAGIELANTLAELNLSKEEKVRIAAEIEGHPDNVAPAVLGNWVVGAKLDGEDFYVRHLFPDCALIAFIPKAELLTSESRGVLPDTLPFKEAVQASSIANVMIAAILRNDMALAGEMMERDLWHEKYRSQLVPHLTQIRDVAKSQGAYAACLSGAGPTVLVFAPRNLANTLQTSLQTLEIDADVLLLDVEGSGAEVFREGHHHHHH | not failed
MSLRITRIRLYKTDLPYVDGSYGWGAGNAITVARASVVVIDTDAGLQGCGEFTPCGENYMIAHSEGVDAFARLAAPQLLGQDPRQVARMERLMDHLVQGHGYAKAPFDAAFWDILGQATGQPVWMLLGGKLCDGAPMYRVAPQRSEAETRAELARHRAAGYRQFQIKVGADWQSDIDRIRACLPLLEPGEKAMADANQGWRVDNAIRLARATRDLDYILEQPCRSYEECQQVRRVADQPMKLDECVTGLHMAQRIVADRGAEICCLKISNLGGLSKARRTRDFLIDNRMPVVAEDSWGGEIASAAVAHFAASTPEEFLINSTDLMNYNTRSTGLGGPTVHQGRLYASDTPGLGVTPDFNSLGAPVADWALPEGHHHHHH | not failed
MSLRIVVTVKYVPDATGDRHFAEDLTVDRDDVDGLLSELDEYAVEQALQIADDADDADDAEITVLTVGPEDAKDALRKALSMGADKAIHVEDDDLHGTDVIGTSLVLAKAIEKAGYDLVISGMASTDGTAGVVPALLAERLGVPQVTLLSEVSVEDGVVKGRRDGDSASEQLEASLPAVVSVTDQSGEARYPSFKGIMAAKKKPVESWDLSDLDLEAEEVGLEGAWTKVDSATERPARTAGTIVKDEGEGGKQLAEFLAGQKFI | failed
MSLRLKKLQKIVPYSPLKSLKIWHLFCVVRLCSIVVTSMTAGKTPTHFTTQPLNRVLGETSGAFADLGTFLPLVLGLIALNQFSPQGIFLGFGVFAILSALFYRRPMPVQPMKVIAALVIAQGLTPGMLQASAMLMGIILLILAFSGAITWLAKQLSQAVSVGIQLAIGLQLMWMGAKMMSDFWLLGLGAFALLFASKFLPLRYLAMPLVIAAGMIWQANSQTDMATSLSIPALSASLHLAWPTLNEWSSAAILLVLPQLALTLTNAVIATSVMAQEKFPEDAAKLTPKNLAISSGLANLLLAPFGAAAMCHGAGGLAVQYHFGARTHLAPLIFGGTCLVIALFWDSQMAWLLGLIPVAILGSLLSIGGLQLAWSKRLIDGKPFCIFVILSTAVTCLAINAAAGLAVGIILEQGRRTWAMLAMR | failed
MSLRPRVLLVEDSTSLAILYKQYVKDEPYDIFHVETGRDAIQFIERSKPQLIILDLKLPDMSGEDVLDWINQNDIPTSVIIATAHGSVDLAVNLIQKGAEDFLEKPINADRLKTSVALHLKRAKLEDLVEGHHHHHH | not failed
MSLRSEQEMMDIFLDFALNDERIRLVTLEGSRTNRNIPPDNFQDYDISYFVTDVESFKENDQWLEIFGKRIMMQKPEDMELFPPELGNWFSYIILFEDGNKLDLTLIPIREAEDYFANNDGLVKVLLDKDSFINYKVTPNDRQYWIKRPTAREFDDCCNEFWMVSTYVVKGLARNEILFAIDHLNEIVRPNLLRMMAWHIASQKGYSFSMGKNYKFMKRYLSNKEWEELMSTYSVNGYQEMWKSLFTCYALFRKYSKAVSEGLAYKYPDYDEGITKYTEGIYCSVKEGHHHHHH | not failed
MSLRSHFATQKDQWQTYTKEKKIKIGFDATFVPMGYEEKDGSYIGFDIDLANAVFKLYGIDVEWQAIDWDMKETELKNGTIDLIWNGYSVTDERKQSADFTEPYMVNEQVLVTKKSSGIDSVAGMAGKTLGAQAGSSGYDAFNASPKILKDVVANQKVVQYSTFTQALIDLNSGRIDGLLIDRVYANYYLEKSGVLDQYNVMPAGYEGESFAVGARKVDKTLIKKINQGFETLYKNGEFQKISNKWFGEDVATDQVKGKREGHHHHHH | not failed
MSLRTGKTNVIALVLSVDEELMGFTSQMVFGITEVLSTTQYHLVVTPHIHAKDSMVPIRYILETGSADGVIISKIEPNDPRVRFMTERNMPFVTHGRSDMGIEHAFHDFDNEAYAYEAVERLAQCGRKRIAVIVPPSRFSFHDHARKGFNRGIRDFGLTEFPIDAVTIETPLEKIRDFGQRLMQSSDRPDGIVSISGSSTIALVAGFEAAGVKIGEDVDIVSKQSAEFLNWIKPQIHTVNEDIKLAGRELAKALLARINGEAAETLQSISGPVWSSMAPKEGHHHHHH | not failed
MSLRTLVAGVDTSTQSCKVRVTDAETGELVRFGQAKHPNGTSVDPSYWWSAFQEAAEQAGGLDDVSALAVGGQQHGMVILDNQGNVIRDAMLWNDTSSAPQAAALIEKLGAAPAQDGEPEDPIARGKQRWVKAVGSSPVASYTLTKVAWVAENEPENVKKIAAICLPHDWLSWRIAGYGPVAEGEDAHLEALFTDRSDASGTIYYDAASNEYRRDLIAMVLEAAEGAKAAQSHAEAIVLPTVLGPRDAAPVKADPAIAGKNVEGGCLLAPGGGDNAMASLGLGMAVGDVSISLGTSGVAAAISENPTYDLTGAVSGFADCTGHYLPLACTINGSRILDAGRAALGVDYDELAKLAFASKPGANGITLVPYFDGERTPNRPNATATFSGMTLANTTRENLARAFVEGLLCSQRDCLELIRSLGASITRILLIGGGAKSEAIRTLAPSILGMDVTRPATDEYVAIGAARQAAWVLSGETEPPAWQLTIDGVETGEPTEAVYEAYAKARGEGHHHHHH | not failed
MSLRVYVTGNITVDETWSIPDIPKKGASIHGVKVSQDIGGKGANQAIILSRCGIETRLIAATGNDSNGAWIRQQIKNEPLMLLPDGHFNQHSDTSIILNSADGDNAIITTTAAADTFSLDEMIPHMADAVAGDILLQQGNFSLDKTRALFQYARSRGMTTVFNPSPVNPDFCHLWPLIDIAVVNESEAELLQPYGVKTLVITQGAAGAWLVQEGQRQFCPAVPAEALDTTGAGDTFLAVMLASALLRGVAPDALALAHASRAAAITVSRRGTLSAFPGSRELAALLTTDGAEGHHHHHH | not failed
MSLRWQWRIYEEPLQEPLTTAQGVWRSRSGIYLRLEDEQGQVGYGEIAPLPGWGSETLNADIALCQQLPGHLTPEIMATIPEALPAAQFGFATAWQSVGRLPYRVRPWPICALLGSGQAALEQWQQSWQRGQTTFKWKVGVMSPEEEQAILKALLAALPPGAKLRLDANGSWDRATANRWFAWLDRHGNGKIEYVEQPLPPDQWQALLSLAQTVTTAIALDESVVSAAEVQRWVDRGWPGFFVIKTALFGDPDSLSLLLRRGLEPQRLVFSSALEGAIARTAIFHLLETWQPCHALGFGVDRWRSAPLLTTLTAYERLWERLDQGHHHHHH | not failed
MSLSASLPLAIERRPAAWTFTLSRPEKRNALSAELVEALIDGVDAAHREQVPLLVFAGAGRNFSAGFDFTDYETQSEGDLLLRMVRIEMLLQRVAGSPSLTLALAHGRNFGAGVDLFAACKWRYCTPEAGFRMPGLKFGLVLGTRRFRDIVGADQALSILGSARAFDADEARRIGFVRDCAAQAQWPALIDAAAEAATALDPATRATLHRVLRDDHDDADLAALARSAAQPGFKARIRDYLAQPAAEGHHHHHH | not failed
MSLSFLKHVQDCNTHDLSNFVRFVIEGRRVGWVRKALAQRLKAHGRVFDVTRDAVLLSASLRTPQSRTRAVADVVDRLADEGVVPAPRGELYRVNQSWGEPTLMLLDRAVVPTFGVRAYGVHLNGYVGAGADLHLWIGRRSPDKSVAPGKLDNMVAGGQPADLSLRQNLIKECAEEADLPEALARQAIPVGAITYCMESPAGIKPDTLFLYDLALPEDFRPHNTDGEMADFMLWPAAKVVEAVRTTEAFKFNVNLTVIDFAIRHGLIDPDNEPDYQEILAGLRGRPRERAASEGHHHHHH | not failed
MSLSLKIALISQNENLLNLFPKLALEKNFIPITKTASLTRASKIAFGLQDEVDAIISRGATSDYIKKSVSIPSISIKVTRFDTMRAVYNAKRFGNELALIAYKHSIVDKHEIEAMLGVKIKEFLFSSEDEITTLISKVKTENIKIVVSGKTVTDEAIKQGLYGETINSGEESLRRAIEEALNLIEVRNEGHHHHHH | not failed
MSLSLYYKKIREQLGHELIFMPSVAAVIKNEQGELLFQYPGGEYWSLPAGAIEPGETPEEAVIREVWEETGLKVQVKKQKGVFGGKEFRYTYANGDKVEYIVVVFECEITSGKLKSIDGESLKLQYFSFSEKPPLALPYPDKIFLEGHHHHHH | not failed
